Assay results from patent US20150166647A1 (VLST, published 2015).

T1: NAP-2
T1 construct: also called NAP-2/CXCL7; CXCL7
T1 chemokine: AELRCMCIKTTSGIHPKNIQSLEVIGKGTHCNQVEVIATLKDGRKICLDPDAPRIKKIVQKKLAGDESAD

T2: human MPIF-1/CCL23 (human, UniProt P55773 46-120)
T2 sequence: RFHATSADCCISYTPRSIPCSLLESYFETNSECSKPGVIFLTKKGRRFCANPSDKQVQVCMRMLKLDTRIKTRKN

T3: human HCC-1/CCL14/CCL14a (human, UniProt Q16627 28-93)
T3 sequence: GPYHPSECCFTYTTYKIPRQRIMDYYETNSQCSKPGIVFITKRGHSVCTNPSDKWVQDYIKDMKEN

T4: human HCC-2/MIP-1δ/CCL15 (human, UniProt Q16663 46-113)
T4 sequence: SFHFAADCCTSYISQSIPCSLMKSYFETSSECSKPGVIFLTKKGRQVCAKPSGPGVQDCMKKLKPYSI

T5: ELC
T5 construct: also called ELC/MIP-3β/CCL19; CCL19
T5 chemokine: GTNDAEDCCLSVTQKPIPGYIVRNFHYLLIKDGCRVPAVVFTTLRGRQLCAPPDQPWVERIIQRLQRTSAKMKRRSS

T6: HCC-4
T6 construct: also called HCC-4/CCL16; CCL16
T6 chemokine: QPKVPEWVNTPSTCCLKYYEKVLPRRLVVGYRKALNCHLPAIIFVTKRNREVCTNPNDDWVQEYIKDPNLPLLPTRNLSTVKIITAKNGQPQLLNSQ

T7: MDC
T7 construct: also called MDC/CCL22; CCL22
T7 chemokine: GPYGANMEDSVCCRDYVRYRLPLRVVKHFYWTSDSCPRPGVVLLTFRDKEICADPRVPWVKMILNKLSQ

T8: Eotaxin-2
T8 construct: also called Eotaxin-2/CCL24; CCL24
T8 chemokine: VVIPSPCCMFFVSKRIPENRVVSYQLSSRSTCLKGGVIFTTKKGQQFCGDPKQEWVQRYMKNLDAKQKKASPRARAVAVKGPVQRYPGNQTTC

T9: human PARC/CCL18 (human, UniProt P55774 21-89)
T9 sequence: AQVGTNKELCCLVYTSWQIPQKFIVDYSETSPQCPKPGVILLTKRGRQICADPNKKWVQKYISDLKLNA

T10: I-309
T10 construct: also called I-309/CCL1; CCL1
T10 chemokine: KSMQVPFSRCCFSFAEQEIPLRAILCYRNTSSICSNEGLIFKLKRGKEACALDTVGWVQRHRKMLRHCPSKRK


Key:
NAP-2 = target: T1, NAP-2; assay: MSD electrochemiluminescence assay; chemokine coated at 1 µg/mL, 18V4F at 3 µg/mL; background = BSA
GCP2 = target: T11, GCP2; assay: as above
T11 construct: also called GCP-2/CXCL6; CXCL6
T11 sequence (chemokine, as listed by the source): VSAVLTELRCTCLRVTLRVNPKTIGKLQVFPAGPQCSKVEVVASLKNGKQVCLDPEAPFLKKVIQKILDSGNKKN

Groα = target: T12, Groα; assay: as above
T12 construct: also called Gro-α/CXCL1; CXCL1
T12 sequence (chemokine, as listed by the source): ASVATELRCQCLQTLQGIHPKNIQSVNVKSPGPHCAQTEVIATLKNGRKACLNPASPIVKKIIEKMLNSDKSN

MCP-4 = target: T13, MCP-4; assay: as above
T13 construct: also called MCP-4/CCL13; CCL13
T13 sequence (chemokine, as listed by the source): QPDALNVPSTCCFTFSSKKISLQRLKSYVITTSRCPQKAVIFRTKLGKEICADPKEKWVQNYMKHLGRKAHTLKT

human MPIF-1/CCL23 [1] = target: T2, human MPIF-1/CCL23; assay: as above
human HCC-1/CCL14/CCL14a = target: T3, human HCC-1/CCL14/CCL14a; assay: as above
MIP3-α = target: T14, MIP3-α; assay: as above
T14 construct: also called LARC/MIP-3α/CCL20; CCL20
T14 sequence (chemokine, as listed by the source): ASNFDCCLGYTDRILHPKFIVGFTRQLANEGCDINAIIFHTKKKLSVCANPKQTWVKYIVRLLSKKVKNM

human HCC-2/MIP-1δ/CCL15 = target: T4, human HCC-2/MIP-1δ/CCL15; assay: as above
ELC = target: T5, ELC; assay: as above
human MCP-1/CCL2 = target: T15, human MCP-1/CCL2 (human, UniProt P13500 24-99); assay: as above
T15 construct: also called Biotin-MCP1
T15 sequence (P13500 24-99 limits assumed): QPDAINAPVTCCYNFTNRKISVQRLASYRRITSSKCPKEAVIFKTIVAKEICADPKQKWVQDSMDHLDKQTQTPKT

Eotaxin = target: T16, Eotaxin; assay: as above
T16 construct: also called Eotaxin/CCL11; CCL11
T16 sequence (chemokine, as listed by the source): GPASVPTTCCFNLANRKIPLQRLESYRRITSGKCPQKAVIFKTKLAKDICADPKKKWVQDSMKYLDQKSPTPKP

HCC-4 = target: T6, HCC-4; assay: as above
MDC = target: T7, MDC; assay: as above
MCP-3 [2] = target: T17, MCP-3; assay: as above
T17 construct: also called MCP-3/CCL7; CCL7
T17 sequence (chemokine, as listed by the source): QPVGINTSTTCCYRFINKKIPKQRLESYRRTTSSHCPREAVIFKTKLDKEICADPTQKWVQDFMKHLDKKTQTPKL

Eotaxin-2 = target: T8, Eotaxin-2; assay: as above
human PARC/CCL18 = target: T9, human PARC/CCL18; assay: as above
I-309 = target: T10, I-309; assay: as above
human MPIF-1/CCL23 [3] = target: T2, human MPIF-1/CCL23; assay: MSD electrochemiluminescence assay; chemokine coated at 1 µg/mL, 7D12A at 3 µg/mL; background = BSA
SDF = target: T18, SDF; assay: as above
T18 construct: also called SDF-1/CXCL12; CXCL12
T18 sequence (chemokine, as listed by the source): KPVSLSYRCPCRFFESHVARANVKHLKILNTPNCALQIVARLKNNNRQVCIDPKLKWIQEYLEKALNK

MCP-3 [4] = target: T17, MCP-3; assay: as above

Binder | binding result (NAP-2) | binding result (GCP2) | binding result (Groα) | binding result (MCP-4) | binding result (human MPIF-1/CCL23 [1]) | binding result (human HCC-1/CCL14/CCL14a) | binding result (MIP3-α) | binding result (human HCC-2/MIP-1δ/CCL15) | binding result (ELC) | binding result (human MCP-1/CCL2) | binding result (Eotaxin) | binding result (HCC-4) | binding result (MDC) | binding result (MCP-3 [2]) | binding result (Eotaxin-2) | binding result (human PARC/CCL18) | binding result (I-309) | binding result (human MPIF-1/CCL23 [3]) | binding result (SDF) | binding result (MCP-3 [4])
monoclonal antibody 18V4F (antibody, V domains shown, also called MAb 18V4F) VH: QVQLKESGPGLVAPSQSLSITCTVSGFSLTGYGIHWVRQPPGKGLEWLGVIWPGGGTNYNSALMSRLSISKDNSKSQVFLKMNSLQTDDTAMYYCARGPLITTEVSMDYWGQGTSVTVSS VL: QAVVTQESALTTSPGETVTLTCRSNTGAVTTSNYANWVQEKPDHLFTGLIGGTNNRAPGVPARFSGSLIGDKAALTITGAQTEDEAIYFCALWYSNHWVFGGGTKLTVLG | no binding (tested: 3 µg/mL) | no binding (tested: 3 µg/mL) | no binding (tested: 3 µg/mL) | no binding (tested: 3 µg/mL) | no binding (tested: 3 µg/mL) | no binding (tested: 3 µg/mL) | no binding (tested: 3 µg/mL) | no binding (tested: 3 µg/mL) | no binding (tested: 3 µg/mL) | no binding (tested: 3 µg/mL) | no binding (tested: 3 µg/mL) | no binding (tested: 3 µg/mL) | no binding (tested: 3 µg/mL) | no binding (tested: 3 µg/mL) | no binding (tested: 3 µg/mL) | no binding (tested: 3 µg/mL) | no binding (tested: 3 µg/mL) |  |  | 
monoclonal antibody 7D12A (antibody, V domains shown, also called MAb 7D12A) VH: EVHLQESGPSLVKPSQTLSLTCSVTGDSITNGYWNWIRKFPGNKLDYMGYISYDGNTYYNPSLKSRFSITRDTSKNQYYLQLNSVTTEDTATYYCSRGDYGTYVMDYWGQGTSVTVSS VL: NIVLTQSPVSLAVSLGQRATISCRASESVDSHGNSFMHWYQQKPGQPPKLLIYLASNLESGVPARFTGGGSGSDFTLTIDPVEADDVGTYYCQQNNEDPYTFGGGTKLEIK |  |  |  |  |  |  |  |  |  |  |  |  |  |  |  |  |  | binds | no binding (tested: 3 µg/mL) | no binding (tested: 3 µg/mL)
